B1: Numb-related protein 1 (Caenorhabditis elegans), Q9XTY6 (parent)
chain: MSASQGNVFTRGLSRISRRKKKTKSIQNSLVSEQQPSFDAAIVPMPIPNDKSSIFSKGMDRLRRSLRLPKKRRDRSHDRHLSPDVTGGSKTEQWQPDEGAVRTGTCCFNVKYLGSVEVYESRGMQVCEGALKSLKASRRKPVKAVLYVSGDGLRVVDQGNSRGLLVDQTIEKVSFCAPDRQTDKGFAYICRDGASRRWMCHGFLATKETGERLSHAVGCAFSICLEKKKRRDEETAQVNVQSAQESTSSTPPKDIFHPNWEDNTSEGTSTQNPSNSRSNLAYQSFRKHVSIEDRYLDPQSVIINEVPASNHMDEIRRISKPRPTGNPALFLRQGSLRAPPDMPSSSDQFKRNMSLRTVSNNPTERSPEKKSFGTQLYNEPIYEGDEDPLGLGITPPVVTKTSGSLSNNGLDGINLNWKSIPAPVHQMQQHNANGDFVAAWPQNTIEKPTVGPLDKLQKQFEDIKLISISSGENTPTTRSKADEWLDDVLRVSMSMSPTSPSSDPPSTSSYSVLPKSGPPPAHAPPPLPVRQAVSNGSPSIYQQQLQQANSTRNSPAGINWNSSPNPMKISQPPAKPVDPFDVQWSRLAVNNTH
partner: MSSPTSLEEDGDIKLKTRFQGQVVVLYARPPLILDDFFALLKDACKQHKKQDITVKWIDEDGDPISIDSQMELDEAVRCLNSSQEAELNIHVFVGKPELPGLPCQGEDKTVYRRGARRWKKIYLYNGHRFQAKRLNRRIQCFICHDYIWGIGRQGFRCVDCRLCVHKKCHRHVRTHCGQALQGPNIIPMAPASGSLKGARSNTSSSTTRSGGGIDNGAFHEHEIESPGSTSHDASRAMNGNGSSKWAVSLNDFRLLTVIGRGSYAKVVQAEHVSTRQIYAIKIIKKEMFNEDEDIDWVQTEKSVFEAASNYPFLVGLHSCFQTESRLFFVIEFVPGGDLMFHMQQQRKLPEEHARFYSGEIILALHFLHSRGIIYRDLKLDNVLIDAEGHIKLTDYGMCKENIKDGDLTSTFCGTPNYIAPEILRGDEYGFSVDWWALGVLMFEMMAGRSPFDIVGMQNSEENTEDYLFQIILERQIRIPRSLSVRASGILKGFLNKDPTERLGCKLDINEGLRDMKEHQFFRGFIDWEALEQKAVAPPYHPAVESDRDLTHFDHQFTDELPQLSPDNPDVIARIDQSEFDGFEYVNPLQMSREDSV

Variants of: B1
Conditions: with kpc3_caeel pkc-3, Q19266

Variant	effect of a mutation on the interaction
F221L	decreasing interaction

Variants of: B1
Conditions: with kpc3_caeel pkc-3, Q19266
Remark: another data set of the same source

Variant	effect of a mutation on the interaction
F221L	decreasing interaction
F175L	decreasing interaction

Source: IntAct's records for PubMed 11134024
